Experimental data from the DeepSol protein solubility set.

experiment: soluble on expression in E. coli; label from the status in PepcDB or PDB records

Sequence | soluble on expression in E. coli
MNDIEAAFHQYFEIIDADTPELLKTVFDLRYRILCVHNVIPGFDTNNYPNELESDQYDSHSIHFLLRHRPTNTFIGTTRLILPNPLDPMDKFPTELNTHFYPGFVLDSSSRKHTTEVSRFAILSDFFKRKGERNMLSQSTEIGCKAQERRRFPHPMLGLVVGLIQLCARNNIYHLISAMEPALNKLLGFYSLQMNPIGPPADYHGLRTPYYLYLPDLLDRMYQDHRSLWELITDHGRIWPMNLACIHQKTLKTAYTDNVYISE | not soluble
KPLQRKLASGMVKKHSIIRALNKVYKRDVYFPGEEELNEVLSDEHKSGANTWEETTELNFEPDMTTVTTEDQSAKPPEQKTPSKDVLDFTQNFLQP | not soluble
EVQLVESGGGLVQPGGSLRLSCAASGFTFSDYGIAWVRQAPGKGLEWVAFISDLAYTIYYADTVTGRFTISRDNSKNTLYLQMNSLRAEDTAVYYCARDNWDAMDYWGQGTLVTVSSASTKGPSVFPLAPSSKSTSGGTAALGCLVKDYFPEPVTVSWNSGALTSGVHTFPAVLQSSGLYSLSSVVTVPSSSLGTQTYICNVNHKPSNTKVDKKVEPKSCDKTHTC | soluble
MSLDFWLYKQAQQNGHHIAITDGQESYTYQNLYCEASLLAKRLKAYQQSRVGLYIDNSIQSIILIHACWLANIEIAMINTRLTPNEMTNQMRSIDVQLIFCTLPLELRGFQIVSLDDIEFAGRDITTNGLLDNTMGIQYDTSNETVVPKESPSNILNTSFNLDDIASIMFTSGTTGPQKAVPQTFRNHYASAIGCKESLGFDRDTNWLSVLPIYHISGLSVLLRAVIEGFTVRIVDKFNAEQILTMIKNERITHISLVPQTLNWLMQQGLHEPYNLQKILLGGAKLSATMIETALQYNLPIYNSFGMTETCSQFLTATPEMLHARPDTVGMPSANVDVKIKNPNKEGHGELMIKGANVMNGYLYPTDLTGTFENGYFNTGDIAEIDHEGYVMIYDRRKDLIISGGENIYPYQIETVAKQFPGISDAVCVGHPDDTWGQVPKLYFVSESDISKAQLIAYLSKHLAKYKVPKHFEKVDTLPYTSTGKLQRNKLYREGHHHHHH | soluble
DILVFTPRKSDAGISVILYPGAFVDALSYAPLANKLASSGYKTYIAEMPLNLAVFGKNRAADIIDEAPDEKFVIGGHSLGGVMSSRFAHENESEIEGVFFLASYPDKKGSLKNASFPALSITGTKDDVLNKDAYDKNKKYLPKDTTFVSIEGGNHAQFGSYGAQHGDGKATISEAEQTDQVSNALIAWLNTSVKNQER | soluble
MKKRRFPRVNAVLSRWGVALSDARETQAEQARLADFEARGGLEAPAYALSPGMRTFDLAPLVEEYAQHGEALAALHDPARNQTGYRSGNGYYDTPDAEALYLMIRRYQPRRVIEVGCGNSTRITRQAALDGGLETEITAIDPWPRADIAGVVDRFEQARLEEVDPAVFAALEADDVLFIDSSHQVRMSNDVAHLFCRIIPALAPGVVIHVHDVFLPYEYPKRFFYDCPSWAEQYVLHALIQSGGYDILWPGYYLQRARPDAVEALPFLGQGRAQSFWIRKL | not soluble
MIIVHLCGGLGNQMFQYAAGLAAAHRIGSEVKFDTHWFDATCLHQGLELRRVFGLELPEPSSKDLRKVLGACVHPAVRRLLAGHFLHGLRPKSLVIQPHFHYWTGFEHLPDNVYLEGYWQSERYFSNIADIIRQQFRFVEPLDPHNAALMDEMQSGVSVSLHIRRGDYFNNPQMRRVHGVDLSEYYPAAVATMIEKTNAERFYVFSDDPQWVLEHLKLPVSYTVVDHNRGAASYRDMQLMSACRHHIIANSTFSWWGAWLNPRPDKVVIAPRHWFNVDVFDTRDLYCPGWIVLLEHHHHHH | not soluble
MSLADNRDELKETLRTLLRDNPDLVLEVLREHSETVLEIAQQGANQRRRKVLVAQWKTDLEDPKKVNLADRPVRGEANAPVTVVAYSDFTCPYCQQAAGTVEMLLANYKGKVRYVFKQMPLETHENARTASNYYVAASLQDPAKAWKLYEAVFADRDRLVTEGEPFLKKVAQEAGLDMQRLATDIKGRKVKALIEEDMAEARKLGVQGTPYFLVNDLVVRGALPLDLFSDAVDMALEKAGAKEGHHHHHH | soluble
MRITIYTRNDCVQCHATKRAMENRGFDFEMINVDRVPEAAEALRAQGFRQLPVVIAGDLSWSGFRPDMINRLHPAPHAASA | soluble
MGSDKIHHHHHHMTSKINKIVNGPIPDSFLFDESKRLDSLKFDGTNLEVLDQLLLPHEFKYIPVEGVSDAFAVIKSMQVRGAPLIAVVGSLGLLLEIQKASELDSESIIQKINFLISSRPTAVDLRNSLNGLKPILESQDYSDVVKLEKCRSYLLNVYTDEKLQNRILVWNAYQELLSAFPDKEKLTVMTICNTGSLATISWGTALGVIRALHSENRLKLVYVLETRPYNQGIRLTSIELLHGEVPFKLITDSMAAWAMKNHQVDCVLTGADNVARNGDTANKIGTYMLAVLCKHHNINFYPVVPFTTINKNIATGEEIKIEERPSAEMLRVNGVLIGNSECPVWNPAFDVTPAHLITKILTDFGNWPPEMLEQQIPK | not soluble
MNLFYNPKGVGDVAFIQIEPSVGPFEYEQKHGVVEIKKENEVVGYNIFNVSNNVTINDNGHIKLTTELIKDLQQLITEAGFDYQLDTDVSPKFVVGYVETKEKHPNADKLSVLNVNVGTEKLQIVCGAPNVESGQKVVVAKVGAVMPSGMVIKDAQLRGVDSSGMICSMKELNLPNAPKEKGIMVLNDDYDIGQAFFELEHHHHHH | soluble
MDTTEFDEIRPYNDEELPQIFEELIADPAFQKAATDAIPNVPFELLAQKIRACKSKLDFQETFCYGILWKIAADHTDGLTLDHTAVPDKSKAYTYVSNHRDIILDSGFLSILLIDQGMDTVEIAIGDNLLVYPWIKKLVRVNKSFIVQRALTMRQMLESSARMSRYMHYTINEKNQSIWIAQREGRAKDSNDRTQDSVLKMLAMGGEGDLIDRLMEMNIAPLAISYEYDPCDFLKAQEFQLKRDIEGYKKTTQDDLISMQTGLFGYKGKVHFQTAPCINDRLAQLDRSLPKQELFSSISACIDQRIHSNYRIYSGNYVAYDLLKGTSEFAGHYTPEEKQRFVTYIEQQLGKIKIPNKDEDFLRGKLLLMYANPLVNYLAACQ | not soluble
MENMIVIMAGGRSSRMGAEKPILKVNGKPMILRVYEESTKVGETLVAISKNTPKTRELCIKEGIPLIETPGEGYVEDVRYLLKELGSFVSVSADLPFVKACDIAEVKKAFDGKTSLTGVLPLSKVPTDLRPVVYKGYVIVGLNGVGFEGEKFYELSNPLLALNVNTPEELKLANRIAKLIG | soluble
MVLLSFDIEEFDVPLEQGYKDFPSEEQLRISRQGTEAILHILRKKGVRSTFFSTVTFWESLPEDLRKGIYTDGHELASHGVFHSSFSKEHLAESRQKLASLWDGTDVCGFRMPRMMPVGDAEIAEAGYLYNSSLNPTCIPGRYNHLSAPRLPYFDKYGVLQMPSSVTPLLRFPLFWLSLHHLPLRLYIRMIRHTVRRDNYLNLYFHPWEFAEISCLPDCKLSYTVTHNSGEKMCRRLEAVIDTLLADGCSFGTFSDYYRFQKQG | not soluble
MAHHHHHHMLKECDFFSDSYGCIITKSIGYQAPFPLVRLSNGRSTKIPDGACVQGACFVSFGADHTGSRGRLLTMDVSARASSVSFLQLLSSSCPPVTLEPEVEYVSKIETTETASAVVTRGGGNRWSTSVYVQGEDVPDTAYSRRVHFHRASVASLFGFSLWLMEVAKDDYGAQAVHRYSLSTALTGGVSESTLVSANLGRPLDIIALSEDTALVLGTNGVAMADRRQRASDILFFSNLLNGGATGDRQLLTFGEDYTLRAYDLRDVSAPLFQATSATYLRIKSEIDTRASLLVTSDITGVFDVLHVTTVASLQHSGDTVLDAAVLPSRHNGVRVCTSTGSGMIYDWTVT | not soluble
MTINYQFGDVDAHGAMIRAQAGSLEAEHQAIISDVLTASDFWGGAGSAACQGFITQLGRNFQVIYEQANAHGQKVQAAGNNMAQTDSAVGSSWA | not soluble
MFQIGEALMGQGSELAHVDLMIGDKGGPVGQAFANGLTQLSAGHTPLLSVIRPNLPPKPSTLIIPKVTVKNMDQAARIFGPAQSAVAKAVADSVEEGVIPKDQVEDLVIVASVFIHPEAQDYNKIYRYNYGATKLAIKRALEGFPDIDTVLEESNKSTHAIMGFKVTRLWDPPYLQIAFDNPNLEFVLSAISEIPKSDHVIIEAGTPLIKRYGTDVISKIRQVRPDAFIVADLKTLDTGNLEARMVADAAGDAIVVSALAPISTIDKLIEEAHKTGIYAVMDTLNQQDPISVLKQLKVMPDVIELHRGIDIEGTEHAWGNIGEIKKIAPKALVAVAGGVRLDKVPVALSQGADILVVGRAITNAKDVREMAEQFINSLNKPEIDQFRVMTDF | not soluble
MGSDKIHHHHHHMFQPPLIAFLTDFGLEDAFVGVMKGVIATICREAQVIDLTHAISAQNVRQAAFHLDRSISYFPAETIFVCVVDPGVGTARRAIGVEAGPYRFIAPDNGLLTPVFERWADAKCHELTNPAYQLANPSATFHGRDLFSPAAAHLATGVPLNAFGSAIDVANCTRIELWQNKPCDNGKVWTGEVIATDHFGNLITSFEASMLSDGEDWTVKAGNAEPLPILRTYGEVEQGKPLAYIGSSGMIEIAIRNGSASAELRVGGGDEVELRKG | not soluble
MTIYNINFGIGWASSGVEYAQAYRAKLLRRTNQDTKFVFLDFIQSENIQTLTQNIGFKDQEVIWLYQYFSDISLAPTTYTLDDIERELGHDISFRERNGKIVRLYFNGKSSFVTCYLQNEQKDIVDRAEFVINSMLVRKDFYSYTRIFSEYYAPADNKAKLYMRQFYNQDGSIAYNEYIDGDSSIYVFEDAVLYNKTEFIAYFLQRLNLTRDDIVILDRASDIGQAVLQHKGDSKVGVVIHADHYSNNMMSEQHILWNNYYEYQFSKAKYIDFFITATDIQNHMVCRQFEQYQGYRPRVYTIPVGSIDALSYPTLSRKPYAMISASRLANEKHIDWLVKAVIVAKRQVPELTFDIYGEGSEKTRLRKIIDTHRAQDYIRLLGHVKLDEIYNDYELFLSASTSEGFGLTLMEAVGSGLGMIGLNVNYGNPTFIRDGENGYLVPFDTDEDSVDDVIAKLAHAIVMYFNNGPQTPHDISYEVAQQFMTQDIILKWETLVQEVLHD | not soluble
MGSDKIHHHHHHMFFIRVDSNQTISGGHIMRCLAIAKALIINGKDVTFLIADDNPVEVLKQNRVSYVILNSDWQDLMSDLEQTIKVLSQENDPYLLIDTYCITKEYVEGLKAYAKVGYLGSKSEYLGNLDFLINYSSYIDYNYYKNNYFNGTKLLLGISYAPLRDEFQNQEPHYREQVRNILITTGNTDNDGMVGLLLDRLRYLLKEKNIIANVIIGRMFNNKELLHVKYDDNSNVKLYENVSSMSTIMRNCDLAISANGTTIYELSAMAIPTISFAMVEEQVKSAEGLDALRVIDYCGTSYTDVNKCVKAIIDKALYYIENYDNRIRLAQNAHNLIDGNGCQKIIDELF | not soluble
MMLAISEIRKHPDGLSFDRLCDVKSMLLERDQQIIDIKAVKAVGNVRYDKGLYLLDYQLSYEVILPSSRSMVPVCLSEVQHIQELFIEATDLADKKELVEDNLVLVLDKDAINLEESIVDNILLAIPVQVLTEEEKKSKELPAGQNWAVLTEEDYQCLKEEKQKENNPFASLQGLFDE | not soluble
MSLHWLFGDQLGPHFLTPGEEGPGPETPLLMIEARSVFRRRRFHRAKAHLVLSAMRHRAAEPGDRVTYVRADTYRQGLARTARGRPVGVHHPTSHAALRLVRALPQVTVGPARGFLVPMTGFAAWAEGHGGKRLRQEDFYRWVRRGHGLLMDGEQPAAGRWNLDHDNREPPPREAASLQVGRPYRPREDDIDEEVRHDLDRWERDGDVSFVGRDGPRLFEGHHHHHH | soluble
